Sequences and labels used below:
B1: CPEB3 Ribozyme (parent)
chain: GGGGGCCACAGCAGAAGCGUUCACGUCGCGGCCCCUGUCAGAUUCUGGUGAAUCUGCGAAUUCUGCUGU

We go through 39 variants from the RNAGym collection of RNA variant scans (doi:10.7554/elife.80360).

In this series the parent is B1. The series is described as follows: self-cleavage, relative activity (ratio to wild type); higher = more cleavage; co-transcriptional.
As for GGGGGCCACAGCAGAAGCGUUCACGUCGCGGCCCCUGUCAGAUUCUGGCGAAUCUGCGAAUUCUGCUGA [U49C U69A], the self-cleavage is 1.04.
In the case of GGGGGCCACAGCAGAAGCGUUCACGUCGCGGCCCCUGUCAGAUUCUGGCGAAUCUGCGAAUUCUGCUGC [U49C U69C], the self-cleavage was determined as 1.04.
GGGGGCCACAGCAGAAGCGUUCACGUCGCGGCCCCUGUCAGAUUCUGGCGAAUCUGCGAAUUCUGCUGG [U49C U69G]: the self-cleavage is 1.05.
Take GGGGGCCACAGCAGAAGCGUUCACGUCGCGGCCCCUGUCAGAUUCUGGCGAAUCUGCGAAUUCUCCUGU [U49C G65C]: the self-cleavage came out at 0.634.
Regarding GGGGGCCACAGCAGAAGCGUUCACGUCGCGGCCCCUGUCAGAUUCUGGCGAAUCUGCGAAUUCUUCUGU [U49C G65U], the self-cleavage stood at 0.79.
For the variant GGGGGCCACAGCAGAAGCGUUCACGUCGCGGCCCCUGUCAGAUUCUGGCGAAUCUGCGAAUUCUACUGU [U49C G65A], the self-cleavage was determined as 0.89.
Turning to GGGGGCCACAGCAGAAGCGUUCACGUCGCGGCCCCUGUCAGAUUCUGGUAAAUCUGCGAAUUCUACUGU [G50A G65A], the self-cleavage worked out at 0.901.
The same measure for GGGGGCCACAGCAGAAGCGUUCACGUCGCGGCCCCUGUCAGAUUCUGGUAAAUCUGCGAAUUCUGUUGU [G50A C66U]: 1.01; for GGGGGCCACAGCAGAAGCGUUCACGUCGCGGCCCCUGUCAGAUUCUGGCGAAUCUGCAAAUUCUGCUGU [U49C G58A]: 0.911.
For the variant GGGGGCCACAGCAGAAGCGUUCACGUCGCGGCCCCUGUCAGAUUCUGGCGAAUCUGCUAAUUCUGCUGU [U49C G58U], the self-cleavage stood at 0.988.
In the case of GGGGGCCACAGCAGAAGCGUUCACGUCGCGGCCCCUGUCAGAUUCUGGGGAAUCUGCGAAUUAUGCUGU [U49G C63A] it was 0.952; in that of GGGGGCCACAGCAGAAGCGUUCACGUCGCGGCCCCUGUCAGAUUCUGGGGAAUCUGCGAAUUUUGCUGU [U49G C63U], 0.994.
As to GGGGGCCACAGCAGAAGCGUUCACGUCGCGGCCCCUGUCAGAUUCUGGGGAAUCUGCGAAUUGUGCUGU [U49G C63G], the self-cleavage was found to be 0.907.
In the case of GGGGGCCACAGCAGAAGCGUUCACGUCGCGGCCCCUGUCAGAUUCUGGCGAAUCUGCGAAUUCUGCAGU [U49C U67A] it was 0.946; in that of GGGGGCCACAGCAGAAGCGUUCACGUCGCGGCCCCUGUCAGAUUCUGGCGAAUCUGCGAAUUCUGCGGU [U49C U67G], 0.969; in that of GGGGGCCACAGCAGAAGCGUUCACGUCGCGGCCCCUGUCAGAUUCUGGCGAAUCUGCGAAUUCUGCCGU [U49C U67C], 0.986.
As for GGGGGCCACAGCAGAAGCGUUCACGUCGCGGCCCCUGUCAGAUUCUGGUAAUUCUGCGAAUUCUGCUGU [G50A A52U], the self-cleavage came to 0.993.
Take GGGGGCCACAGCAGAAGCGUUCACGUCGCGGCCCCUGUCAGAUUCUGGUAACUCUGCGAAUUCUGCUGU [G50A A52C]: the self-cleavage was found to be 1.04.
As for GGGGGCCACAGCAGAAGCGUUCACGUCGCGGCCCCUGUCAGAUUCUGGCGAAUCUGCGAAGUCUGCUGU [U49C U61G], the self-cleavage was determined as 0.829.
Regarding GGGGGCCACAGCAGAAGCGUUCACGUCGCGGCCCCUGUCAGAUUCUGGCGAAUCUGCGAAUUCUGCUUU [U49C G68U], the self-cleavage was found to be 1.03.
Take GGGGGCCACAGCAGAAGCGUUCACGUCGCGGCCCCUGUCAGAUUCUGGCGAAUCUGCGAAUUCUGCUAU [U49C G68A]: the self-cleavage worked out at 1.01.
Consider GGGGGCCACAGCAGAAGCGUUCACGUCGCGGCCCCUGUCAGAUUCUGGCGAAUCUGCGAAUUCUGCUCU [U49C G68C], for which the self-cleavage worked out at 0.998.
With GGGGGCCACAGCAGAAGCGUUCACGUCGCGGCCCCUGUCAGAUUCUGGGGAAUCUGGGAAUUCUGCUGU [U49G C57G], the self-cleavage was 0.284.
Turning to GGGGGCCACAGCAGAAGCGUUCACGUCGCGGCCCCUGUCAGAUUCUGGGGAAUCUGUGAAUUCUGCUGU [U49G C57U], the self-cleavage amounted to 0.282.
As to GGGGGCCACAGCAGAAGCGUUCACGUCGCGGCCCCUGUCAGAUUCUGGGGAAUCUGAGAAUUCUGCUGU [U49G C57A], the self-cleavage was 0.425.
On to GGGGGCCACAGCAGAAGCGUUCACGUCGCGGCCCCUGUCAGAUUCUGGUAAAUCUGCGAUUUCUGCUGU [G50A A60U], for which the self-cleavage is 0.449.
As for GGGGGCCACAGCAGAAGCGUUCACGUCGCGGCCCCUGUCAGAUUCUGGUAAAUCUGCGACUUCUGCUGU [G50A A60C], the self-cleavage was found to be 0.369.
With GGGGGCCACAGCAGAAGCGUUCACGUCGCGGCCCCUGUCAGAUUCUGGUAAAUCUGCGAGUUCUGCUGU [G50A A60G], the self-cleavage stood at 1.02.
Regarding GGGGGCCACAGCAGAAGCGUUCACGUCGCGGCCCCUGUCAGAUUCUGGCGAAUCUGCGAAUUCCGCUGU [U49C U64C], the self-cleavage came out at 0.907.
For GGGGGCCACAGCAGAAGCGUUCACGUCGCGGCCCCUGUCAGAUUCUGGCGAAUCUGCGAAUGCUGCUGU [U49C U62G], the self-cleavage came to 0.932.
As to GGGGGCCACAGCAGAAGCGUUCACGUCGCGGCCCCUGUCAGAUUCUGGCGAAUCUGCGAAUCCUGCUGU [U49C U62C], the self-cleavage amounted to 0.827.
As for GGGGGCCACAGCAGAAGCGUUCACGUCGCGGCCCCUGUCAGAUUCUGGGGCAUCUGCGAAUUCUGCUGU [U49G A51C], the self-cleavage worked out at 0.939.
As to GGGGGCCACAGCAGAAGCGUUCACGUCGCGGCCCCUGUCAGAUUCUGGGGAAUCUGCGAAUUCUGCUGG [U49G U69G], the self-cleavage came to 1.02.
Regarding GGGGGCCACAGCAGAAGCGUUCACGUCGCGGCCCCUGUCAGAUUCUGGGGAAUCUGCGAUUUCUGCUGU [U49G A60U], the self-cleavage worked out at 0.432.
With GGGGGCCACAGCAGAAGCGUUCACGUCGCGGCCCCUGUCAGAUUCUGGGGAAUCUGCGAGUUCUGCUGU [U49G A60G], the self-cleavage was found to be 0.948.
In the case of GGGGGCCACAGCAGAAGCGUUCACGUCGCGGCCCCUGUCAGAUUCUGGGGAAUCUUCGAAUUCUGCUGU [U49G G56U], the self-cleavage came to 0.978.
Consider GGGGGCCACAGCAGAAGCGUUCACGUCGCGGCCCCUGUCAGAUUCUGGGGAAUCUCCGAAUUCUGCUGU [U49G G56C], for which the self-cleavage amounted to 0.709.
As for GGGGGCCACAGCAGAAGCGUUCACGUCGCGGCCCCUGUCAGAUUCUGGGGAAUCUACGAAUUCUGCUGU [U49G G56A], the self-cleavage stood at 0.966.
On to GGGGGCCACAGCAGAAGCGUUCACGUCGCGGCCCCUGUCAGAUUCUGGUAAAUCUACGAAUUCUGCUGU [G50A G56A], for which the self-cleavage came out at 0.909.
